Patent publication US20230121775A1 (AMUNIX PHARMACEUTICALS, published 2023)
Substitutions are numbered along the chain they refer to.

B1: CD3.9 scFv (parental anti-CD3 scFv) (scFv)
scFv: ELVVTQEPSLTVSPGGTVTLTCRSSTGAVTTSNYANWVQQKPGQAPRGLIGGTNKRAPGTPARFSGSLLGGKAALTLSGVQPEDEAEYYCALWYSNLWVFGGGTKLTVLGATPPETGAETESPGETTGGSAESEPPGEGEVQLLESGGGLVQPGGSLKLSCAASGFTFNTYAMNWVRQAPGKGLEWVARIRSKYNNYATYYADSVKDRFTISRDDSKNTAYLQMNNLKTEDTAVYYCVRHGNFGNSYVSWFAYWGQGTLVTVSS
notes: VL-linker-VH scFv; also called hCD3.9; aCD3.9
B2: CD3.26 scFv (scFv)
scFv: B1 scFv with L10H, A28E, N54I, S95P, L150I, A220V, G241E, Y253H
notes: VL-linker-VH scFv
B3: CD3.25 scFv (scFv)
scFv: B1 scFv with L10H, T31S, N54I, S95P, L150I, A220V, G241E, Y253H
notes: VL-linker-VH scFv
B4: CD3.24 scFv (scFv)
scFv: B1 scFv with T26N, A28E, N54I, E87V, S95P, L150I, A220V, G241E, Y253H
notes: VL-linker-VH scFv
B5: CD3.23 scFv (scFv)
scFv: B1 scFv with T26N, T31S, E87V, S95P, L150I, A220V, G241E, Y253H
notes: VL-linker-VH scFv; also called hCD3.23; aCD3.23

Biological target: Biotinylated CD3(Eµ antigen (Creative Biomart) (UniProt P07766 23-126, biotinylated (site not stated)))
Assay: BLI (ForteBio BLItz), biotinylated CD3 antigen on streptavidin biosensor, scFv in solution

Biotinylated CD3(Eµ antigen (Creative Biomart), sequence (P07766 23-126): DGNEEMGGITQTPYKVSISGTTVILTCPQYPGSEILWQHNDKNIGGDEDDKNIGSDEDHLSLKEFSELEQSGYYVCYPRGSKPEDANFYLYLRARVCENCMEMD

Row | Binder | Kd [nM]
1 | B1 | 75
2 | B2 | 221
3 | B3 | 215
4 | B4 | 296
5 | B5 | 175
